Data: paper PMC3220268, “Phosphorylation of the Arp2 Subunit Relieves Auto-inhibitory Interactions for Arp2/3 Complex Activation” (PLoS Computational Biology, 2011)

What was measured:
[1] = target: recombinant Arp2/3 complex with Arp2 T237A, T238A, and Y202A mutations (UniProt P61158 1-418; P61160 1-394; O15143 1-372; O15144 1-300; O15145 1-178; P59998 …, T237A | T238A | Y202A); experiment: pull-down; GST-NWASP VCA covalently coupled to Activated CH-sepharose 4B; beads added to Arp2/3 complex, room temperature, 30 min; beads spun at 700 x g, Coomassie-stained gels quantified and fitted; conditions: both partners purified
[2] = target: recombinant Arp2/3 complex with ARPC4 R105A and R106A mutations (UniProt P61158 1-418; P61160 1-394; O15143 1-372; O15144 1-300; O15145 1-178; P59998 …, R105A | R106A); experiment: as above; conditions: both partners purified

B1: GST-NWASP VCA (domain or fragment)
chain: PSDGDHQVPTTAGNKAALLDQIREGAQLKKVEQNSRPVSCSGRDALLDQIRQGIQLKSVADGQESTPPTPAPTSGIVGALMEVMQKRSKAIHSSDEDEDEDDEEDFEDDDEWED
[1]
  Kd: 500 nM
[2]
  Kd: 60 nM
